Here are results for two molecules from patent US20150299259A1 (FORSCHUNGSZENTRUM JUELICH, published 2015).

Where no end group is shown, it is not given here. [ ]: non-standard residue; d: D form.

Experiment [1] addresses full-length tau protein (441 amino acids) (UniProt P10636-8 1-441, limits assumed). Briefly: cell-based or functional assay.
Experiment [2] deals with T1, PHF-6 (6-mer tau fragment 306VQIVYK311).
T1 construct: Used as fibrillary (aggregated) material; The mirror image selections used its synthetic D-enantiomer (D-PHF-6); also called L-PHF-6; aggregated tau partial peptide
T1 peptide: VQIVYK
Nature of the experiment: regular phage display and single-phage ELISA on L-PHF-6 fibrils. The procedure:
A phage display kit made by Biolabs was used for the following selections. At the same time, a regular phage display was carried out for the selection of L-peptides. In this regard, obtaining binding motifs after database searches allows conclusions to be drawn concerning previously unknown binding partners in vivo. Moreover, binding partners can later be tested as D-peptides or retro-inverso peptides. After selection, enriched phages were isolated and single-phage ELISA assays were carried out. […] The D-peptides Apt and Knt stem from selections against […]. Against L-PHF-6, a peptide having the sequence […] was selected, which we also analyzed in D-enantiomeric form (TD28) and as a retro-inverso peptide (TD28ri).
(An ELISA detects its analyte on a solid surface through an enzyme-linked reagent.)

full-length tau protein (441 amino acids), sequence (P10636 other isoform, or with tags, fused parts or gaps limits assumed): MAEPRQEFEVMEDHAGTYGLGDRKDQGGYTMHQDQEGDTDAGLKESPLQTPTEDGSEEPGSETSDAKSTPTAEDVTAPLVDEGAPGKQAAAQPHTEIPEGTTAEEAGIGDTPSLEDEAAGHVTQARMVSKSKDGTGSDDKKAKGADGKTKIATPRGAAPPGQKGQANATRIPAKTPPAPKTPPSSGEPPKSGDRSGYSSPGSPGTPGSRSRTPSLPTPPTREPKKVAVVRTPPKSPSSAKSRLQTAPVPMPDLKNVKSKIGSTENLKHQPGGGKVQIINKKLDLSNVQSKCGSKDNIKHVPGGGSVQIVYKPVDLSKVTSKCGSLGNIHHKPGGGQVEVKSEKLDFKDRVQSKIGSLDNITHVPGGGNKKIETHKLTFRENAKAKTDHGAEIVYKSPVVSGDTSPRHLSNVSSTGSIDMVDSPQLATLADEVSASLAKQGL

B1: peptide having the sequence TTSLQMRLYYPP (peptide)
peptide: TTSLQMRLYYPP
modifications: not fully specified
notes: L-peptide selected by regular phage display against L-PHF-6; also called TL28
Consider B1, for which, in experiment [1], the “DLS particle size Day 1 (Tau + AA + peptide, 1:10)” value stood at 5 fold and the “DLS particle size Day 8 (Tau + AA + peptide, 1:10)” value was 4 fold. Further, in experiment [2], the binding result is “binds”.
As to [dT][dL][dK][dI][dV][dW] [D-enantiomeric peptide tlkivw described by Sievers et al.], in experiment [1], the “DLS particle size Day 1 (Tau + AA + peptide, 1:10)” value was 6 fold and the “DLS particle size Day 8 (Tau + AA + peptide, 1:10)” value stood at 6 fold.
